Here are results for three molecules from US20240158515A1 (Regeneron, published 2024).

Test [1] addresses T1, human FGFR3b expressed with a C-terminal myc-myc-hexahistidine tag (hFGFR3b.mmH) (human).
T1 construct: also called REGN3152; monomeric human FGFR3b
T1 chain: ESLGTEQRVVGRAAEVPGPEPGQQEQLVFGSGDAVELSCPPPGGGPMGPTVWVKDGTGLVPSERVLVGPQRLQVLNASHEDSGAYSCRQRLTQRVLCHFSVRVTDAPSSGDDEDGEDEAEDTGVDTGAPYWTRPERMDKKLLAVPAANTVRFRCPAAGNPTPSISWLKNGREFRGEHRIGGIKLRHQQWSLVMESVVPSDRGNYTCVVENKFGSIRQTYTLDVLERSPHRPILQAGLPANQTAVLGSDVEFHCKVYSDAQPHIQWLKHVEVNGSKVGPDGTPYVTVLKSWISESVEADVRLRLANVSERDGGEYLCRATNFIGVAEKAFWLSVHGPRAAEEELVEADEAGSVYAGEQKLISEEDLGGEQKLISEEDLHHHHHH
Put plainly: SPR Biacore, mAb captured on anti-hFc, 25C. As for the experimental part: (§1) The CM5 Biacore sensor surface was derivatized by amine coupling with a monoclonal mouse anti-human Fc monoclonal antibody (REGN2567). […] Antibody-reagent association was monitored for 5 minutes while dissociation in HBS-EP running buffer was monitored for 10 minutes. At the end of each cycle, the anti-FGFR3 antibody capture surface was regenerated using a 10 sec injection of 20 mM phosphoric acid. All binding kinetics experiments were performed at 25° C.
(§2) The specific SPR-Biacore sensorgrams were obtained by a double referencing procedure. The double referencing was performed by first subtracting the signal of each injection over a reference surface (anti-hFc) from the signal over the experimental surface (anti-hFc-captured anti-FGFR3 antibodies) thereby removing contributions from refractive index changes. In addition, running buffer injections were performed to allow subtraction of the signal changes resulting from the dissociation of captured antibodies from the coupled anti-hFc surface. Kinetic association (kₐ) and dissociation (kd) rate constants were determined by fitting the real-time sensorgrams to a 1:1 binding model using Scrubber v2.0c curve fitting software.
Background: SPR reads the build-up and loss of mass on a sensor chip optically.

Test [2] has as its target T2, human FGFR3b expressed with a C-terminal murine Fc tag (hFGFR3b.mFc) (human).
T2 construct: called dimeric; also called REGN3153; dimeric human FGFR3b
T2 chain: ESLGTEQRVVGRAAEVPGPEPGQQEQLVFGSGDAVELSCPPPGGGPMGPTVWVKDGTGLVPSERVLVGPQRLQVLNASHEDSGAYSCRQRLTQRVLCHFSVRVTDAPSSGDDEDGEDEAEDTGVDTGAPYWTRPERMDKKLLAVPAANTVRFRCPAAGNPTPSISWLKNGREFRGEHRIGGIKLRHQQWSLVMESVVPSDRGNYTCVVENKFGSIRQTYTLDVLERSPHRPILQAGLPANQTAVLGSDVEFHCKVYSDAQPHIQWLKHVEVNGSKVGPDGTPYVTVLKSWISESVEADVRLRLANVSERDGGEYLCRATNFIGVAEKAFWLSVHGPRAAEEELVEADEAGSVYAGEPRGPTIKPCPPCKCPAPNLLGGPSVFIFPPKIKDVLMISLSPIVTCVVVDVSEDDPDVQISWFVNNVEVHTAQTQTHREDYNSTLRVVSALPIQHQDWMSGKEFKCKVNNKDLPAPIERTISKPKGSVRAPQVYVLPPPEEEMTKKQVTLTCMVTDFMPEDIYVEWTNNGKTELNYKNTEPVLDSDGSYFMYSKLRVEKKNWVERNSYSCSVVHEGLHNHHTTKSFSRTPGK
The test can be described thus: SPR Biacore, mAb captured on anti-hFc, 25C. As for the experimental part: as §1, §2

The target of test [3] is T3, murine FGFR3b expressed with a C-terminal myc-myc-hexahistidine tag (mFGFR3b.mmH) (murine).
T3 construct: also called REGN3215; monomeric murine FGFR3b
T3 chain: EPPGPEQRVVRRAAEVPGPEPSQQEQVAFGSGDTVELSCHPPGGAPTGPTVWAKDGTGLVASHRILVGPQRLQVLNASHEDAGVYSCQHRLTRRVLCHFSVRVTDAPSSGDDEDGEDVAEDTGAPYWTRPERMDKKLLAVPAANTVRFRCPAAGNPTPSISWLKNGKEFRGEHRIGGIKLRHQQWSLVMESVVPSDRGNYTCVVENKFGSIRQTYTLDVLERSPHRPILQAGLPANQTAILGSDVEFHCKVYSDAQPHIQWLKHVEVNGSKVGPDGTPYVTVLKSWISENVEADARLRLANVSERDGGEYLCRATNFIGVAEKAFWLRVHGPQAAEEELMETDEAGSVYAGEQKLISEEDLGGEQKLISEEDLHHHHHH
Put plainly: SPR Biacore, mAb captured on anti-hFc, 25C. As for the experimental part: as §1, §2

For test [4], the target named is T4, cynomolgus FGFR3b expressed with a C-terminal myc-myc-hexahistidine tag (mfFGFR3b.mmH) (cynomolgus).
T4 construct: also called REGN3521; mf FGFR3b ecto (R357G)(E23-G377;R357G).mmH
T4 chain: T1 chain with A13V, P17S, G22S, T57A, R94L, R171K
Put plainly: SPR Biacore, mAb captured on anti-hFc, 25C. The protocol: as §1, §2

For test [5], the target named is T2, human FGFR3b expressed with a …. The test can be described thus: competition ELISA: 4 nM hFGFR3b-mFc binding to plate-coated hFGF acidic. As for the experimental part:
The fixed concentration of hFGFR3b or hFGFR3c proteins was selected to be near the concentration that generated 50% of the maximal binding (EC₅₀ value) to plate-adhered hFGF acidic or hFGF basic protein. […] The plates were then developed using TMB substrate solution (BD Biosciences) according to the manufacturer's recommended procedure and absorbance at 450 nm was measured on a Victor X5 plate reader.
Binding data were analyzed using a sigmoidal (four-parameter logistic) dose-response model using GraphPad Prism software. […] Percent blocking of FGFR3 antibody at a given concentration was calculated based on the formula shown below.
The ability of anti-FGFR3 antibodies to block human FGFR3b binding to hFGF acidic protein or hFGFR3c binding to hFGF acidic or hFGF basic proteins was evaluated using a sandwich ELISA-based blocking assay.

In test [6] the target is T5, human FGFR3c expressed with a C-terminal myc-myc-hexahistidine tag (hFGFR3c.mmH) (human, UniProt P22607 23-375).
T5 construct: also called REGN3155; monomeric human FGFR3c
Put plainly: SPR Biacore, mAb captured on anti-hFc, 25C; row marked NB. The protocol:
as §1, §2

Substitutions are numbered along the chain they refer to.

As usually defined, the Kd is the equilibrium constant for the complex coming apart. High values mean weaker binding, low ones tighter binding. The koff is a measure of how fast the partners let go of each other. A high value points to fast dissociation. In general, kon refers to the second-order rate constant of association. By t½ is commonly meant the time needed for the level to fall by half in the phase considered. The term IC50 denotes the concentration needed to halve the response being measured.

B1: H4H30071P (antibody, human IgG4 S228P, kappa, V domains shown)
VH: QVQLQQSGPGLVKPSQTLSLTCAISGDSVSRNSAAWNWIRQSPSSGLEWLGRTYYRSKWFYDYAISVKSRITVNPDTSKNQFSLHLNSVTPEDTAVYYCARGYGGYEDYFDYWGQGTLVTVSS
VL: DIQMTQSPSSVSASVGDRVTITCRASQGISSWLAWYQQKPGKAPKLLIYGASSLQSGVPSRFSGSGSGTDFTLTISSLQPEDFATYFCQQGSSFPYTFGQGTKLEIKR
notes: HCVR 42, LCVR 50
Consider B1, for which, in test [1], the “90 nM hFGFR3b.mmH Bind (RU)” value turned out to be 253 RU, the dissociation constant (Kd) stood at 0.137 nM, the koff was 2.96e-05 s⁻¹ and the on-rate constant (kon) came to 216000 M⁻¹ s⁻¹. The “t½” value in test [1] stood at 6.51 h. Also, in test [2], the “30 nM hFGFR3b.mFc Bind (RU)” value came out at 236 RU, the Kd was no more than 0.031 nM, the koff is no more than 1e-05 s⁻¹ and the kon came to 322000 M⁻¹ s⁻¹. In addition, the “t½” value in test [2] is no less than 19.2 h. In addition, in test [3], the “90 nM mFGFR3b.mmH Bind (RU)” value is 174 RU, binding was characterised by a dissociation constant (Kd) of 7.65 nM, the koff was determined as 0.00169 s⁻¹ and the kon came to 220000 M⁻¹ s⁻¹. Also, the “t½” value in test [3] came out at 6.9 min. Further, in test [4], the “90 nM mfFGFR3b.mmH Bind (RU)” value came out at 233 RU, the Kd stood at 0.123 nM, the koff came out at 2.22e-05 s⁻¹ and the kon worked out at 180000 M⁻¹ s⁻¹. In addition, the “t½” value in test [4] worked out at 8.67 h. Moreover, in test [5], the “% Blocking at 200 nM mAb” value came out at 88% and the IC50 is 3.6 nM. The “90 nM hFGFR3c.mmH Bind (RU)” value in test [6] is -4.8 RU.

B2: H4H30089P2 (antibody, human IgG4 S228P, kappa, V domains shown)
VH: EVQLVESGGGLVQPGGSLRLSCIVSGFIFSSYEMSWLRQAPGKGLEWISYISSSGRVIYYADSVKGRFTISRDSAKNSLYLEMNSLRAEDTAIYYCTRKWDSSGPFDFWGQGTLVTVSS
VL: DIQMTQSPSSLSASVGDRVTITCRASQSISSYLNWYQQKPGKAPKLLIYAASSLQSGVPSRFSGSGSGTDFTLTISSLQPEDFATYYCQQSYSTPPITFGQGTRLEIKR
notes: HCVR 62, LCVR 70
With B2, in test [1], the “90 nM hFGFR3b.mmH Bind (RU)” value was found to be 152 RU, the Kd came to 10.2 nM, the koff was 0.00282 s⁻¹ and the kon amounted to 276000 M⁻¹ s⁻¹. Further, the “t½” value in test [1] came out at 0.0683 h. Further, in test [2], the “30 nM hFGFR3b.mFc Bind (RU)” value is 214 RU, the Kd was 0.061 nM, the koff worked out at 1.9e-05 s⁻¹ and the kon worked out at 312000 M⁻¹ s⁻¹. The “t½” value in test [2] was 10.1 h. For the same molecule, in test [3], the “90 nM mFGFR3b.mmH Bind (RU)” value was 60 RU, binding was characterised by a dissociation constant (Kd) of 8.45 nM, the koff turned out to be 0.00238 s⁻¹ and the kon was 281000 M⁻¹ s⁻¹. Further, in test [3], the “t½” value is 4.9 min. Moreover, in test [4], the “90 nM mfFGFR3b.mmH Bind (RU)” value came out at 147 RU, the Kd is 10.3 nM, the koff is 0.00221 s⁻¹ and the association rate constant (kon) is 216000 M⁻¹ s⁻¹. In addition, the “t½” value in test [4] amounted to 0.0867 h. In test [5], the “% Blocking at 200 nM mAb” value came to 68% and the IC50 was 15 nM. The “90 nM hFGFR3c.mmH Bind (RU)” value in test [6] was -6.7 RU.

B3: H4H30108P2 (antibody, human IgG4 S228P, kappa, V domains shown)
VH: QVQLVQSGAEVKKPGASVKVSCKASGYTFNSYDVNWVRQATGQGLEWMGWMNPHSGNTGYAQKFQGRVTMTRDTSTSTSYMELSSLTSEDTAVYYCARGPFSLLSAEFFQHWGQGTLVTVSS
VL: not shown
On to B3, for which, in test [1], the “90 nM hFGFR3b.mmH Bind (RU)” value amounted to 227 RU, the koff amounted to 0.000159 s⁻¹, the kon came to 176000 M⁻¹ s⁻¹ and the “t½” value worked out at 1.21 h. In test [2], the “30 nM hFGFR3b.mFc Bind (RU)” value was determined as 213 RU, the koff was no more than 1e-05 s⁻¹, the kon is 311000 M⁻¹ s⁻¹ and the “t½” value was no less than 19.2 h. Further, in test [3], the “90 nM mFGFR3b.mmH Bind (RU)” value turned out to be 121 RU, the koff turned out to be 0.00199 s⁻¹, the kon amounted to 162000 M⁻¹ s⁻¹ and the “t½” value was determined as 5.8 min. Besides, in test [4], the “90 nM mfFGFR3b.mmH Bind (RU)” value came to 212 RU, the Kd came to 0.909 nM, the koff turned out to be 0.000136 s⁻¹ and the kon amounted to 149000 M⁻¹ s⁻¹. Also, the “t½” value in test [4] was found to be 1.42 h. Also, the “90 nM hFGFR3c.mmH Bind (RU)” value in test [6] is -2.5 RU.
